Measurements published in US20250163137A1 (UNI PHARMA, published 2025).

Experiments:
[1] = target: T1, canine FDP (fibrin-fibrinogen degradation products) (canine); experiment: kinetic analysis, 1:1 binding fit (RU read-out; instrument not named)
T1 construct: A heterogeneous mixture

[2] = target: T1, canine FDP (fibrin-fibrinogen …); experiment: affinity test (RU read-out; instrument not named)

T1 sequence (Q9NRC9 whole entry): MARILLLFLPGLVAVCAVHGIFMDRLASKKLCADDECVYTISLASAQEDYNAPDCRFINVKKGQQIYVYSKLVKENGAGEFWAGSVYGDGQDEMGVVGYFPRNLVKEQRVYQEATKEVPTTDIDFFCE

Kd [1]: 55.2 nM
koff [1]: 0.0026 s⁻¹
kon [1]: 47100 M⁻¹ s⁻¹
Kd [2]: 5030 nM
B1: mAb 14G12-5 (antibody, V domains shown)
VH: EVQLVESGGGLVKPGGSLKLSCAASGFAFNAYDMSWVRQTPEKRLEWVAYISSSGDYTYYPDTVKGRFTVSRDNAKSTLYLHMGSLKSEDTAMYYCAVYYHYDEGLDYWGQGTALTVSS
VL: QIVLIQSPAIMSASPGEKVTMTCSASSSVNYMHWYQQKSGTSPKRWIYDTSKLASGVPARFSGSGSGTSYSLTISSMEAEDAATYYCQQWSSNPPTFGGGTKLEIKR
notes: also called 14G12-5 mAb; recombinant antibody 14G12-5
